Publication PMC11021482

Target: T1, CXCR2 of mouse DRG neurons (mouse (endogenous in DRG)) (UniProt P35343)
T1 sequence: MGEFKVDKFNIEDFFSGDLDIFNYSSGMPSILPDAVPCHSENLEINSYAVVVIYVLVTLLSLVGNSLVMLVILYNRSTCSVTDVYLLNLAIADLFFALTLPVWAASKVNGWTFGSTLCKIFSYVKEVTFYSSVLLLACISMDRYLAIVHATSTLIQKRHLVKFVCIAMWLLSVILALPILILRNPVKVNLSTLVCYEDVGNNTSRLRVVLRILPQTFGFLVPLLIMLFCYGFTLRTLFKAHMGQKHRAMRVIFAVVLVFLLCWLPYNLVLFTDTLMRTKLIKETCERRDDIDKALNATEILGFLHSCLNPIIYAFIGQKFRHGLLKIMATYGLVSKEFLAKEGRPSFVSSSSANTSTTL

B1: recombinant mouse CXCL5 (ligand)
chain: APSSVIAATELRCVCLTVTPKINPKLIANLEVIPAGPQCPTVEVIAKLKNQKEVCLDPEAPVIKKIIQKILGSDKKKAKRNALAVERTASVQ
With B1 the EC50 of the Ca^2+ response of cultured mouse DRG neurons to CXCL5 (Fura-2 imaging, dose-response) was 24.8 nM.
